The chains are these.
T1: EsCas13d, nuclease-dead (Eubacterium siraeum, UniProt B0MS50, R295A;H300A;R849A;H854A)
T1 sequence: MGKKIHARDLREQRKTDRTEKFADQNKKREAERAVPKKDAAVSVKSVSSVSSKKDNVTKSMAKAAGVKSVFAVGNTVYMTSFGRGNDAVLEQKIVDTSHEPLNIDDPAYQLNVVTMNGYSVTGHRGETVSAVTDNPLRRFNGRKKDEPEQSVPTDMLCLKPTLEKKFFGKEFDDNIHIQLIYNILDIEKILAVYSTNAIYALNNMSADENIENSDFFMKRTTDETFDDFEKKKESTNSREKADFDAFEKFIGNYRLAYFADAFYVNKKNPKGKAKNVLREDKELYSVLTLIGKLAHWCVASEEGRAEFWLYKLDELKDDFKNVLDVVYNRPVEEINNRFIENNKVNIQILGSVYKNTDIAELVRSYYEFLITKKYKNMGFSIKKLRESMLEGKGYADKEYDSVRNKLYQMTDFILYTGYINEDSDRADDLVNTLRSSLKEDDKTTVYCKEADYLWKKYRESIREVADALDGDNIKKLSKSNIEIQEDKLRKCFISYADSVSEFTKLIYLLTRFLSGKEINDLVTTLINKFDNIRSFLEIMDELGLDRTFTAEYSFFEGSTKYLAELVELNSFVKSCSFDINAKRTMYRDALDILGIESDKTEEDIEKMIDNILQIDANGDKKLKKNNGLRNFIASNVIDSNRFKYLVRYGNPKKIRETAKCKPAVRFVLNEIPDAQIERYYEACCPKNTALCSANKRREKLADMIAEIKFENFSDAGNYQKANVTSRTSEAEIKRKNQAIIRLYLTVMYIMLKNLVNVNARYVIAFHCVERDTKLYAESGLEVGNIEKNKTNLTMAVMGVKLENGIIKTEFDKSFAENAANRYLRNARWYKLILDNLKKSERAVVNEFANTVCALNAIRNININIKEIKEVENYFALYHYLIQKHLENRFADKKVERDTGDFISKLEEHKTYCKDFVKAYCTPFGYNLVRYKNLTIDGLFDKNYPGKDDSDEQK

B1: target 1 G17U (mixed)
RNA 1: CACCCGUGCAAAAAUGCAGGGGUCUAAAACUGAGCGGAUAACCUCUCUAUGG
RNA 2: GGGAAUGGAUCCACAUCUACGAAUUCGUACCAUAUAGAGGUUAUCCGCUCACCGAGAUCGGAAGAGCACACGU
B2: target 1 C2A,G13A (mixed)
RNA 1: B1 RNA 1
RNA 2: B1 RNA 2 with U35G, G39A, C50A
B3: target 1 insC 3' of 10,insU 3' of 9 (mixed)
RNA 1: B1 RNA 1
RNA 2: GGGAAUGGAUCCACAUCUACGAAUUCGUACCAUAGAGAGGUUCAUUCCGCUCACCGAGAUCGGAAGAGCACACGU
B4: target 1 C6A,U11C (mixed)
RNA 1: B1 RNA 1
RNA 2: B1 RNA 2 with U35G, U41C, C46A
B5: target 1 C2A,G15C (mixed)
RNA 1: B1 RNA 1
RNA 2: B1 RNA 2 with U35G, G37C, C50A
B6: target 1 insC 3' of 20,insC 3' of 10 (mixed)
RNA 1: B1 RNA 1
RNA 2: GGGAAUGGAUCCACAUCUACGAAUUCGUACCACUAGAGAGGUUCAUCCGCUCACCGAGAUCGGAAGAGCACACGU
B7: target 1 del19,del20 (mixed)
RNA 1: B1 RNA 1
RNA 2: GGGAAUGGAUCCACAUCUACGAAUUCGUACCAGAGAGGUUAUCCGCUCACCGAGAUCGGAAGAGCACACGU
B8: target 1 del13,del20 (mixed)
RNA 1: B1 RNA 1
RNA 2: B7 RNA 2 with A32U, G33A, A34G, G35A, A36G, G37A
B9: target 1 insC 3' of 14,insG 3' of 9 (mixed)
RNA 1: B1 RNA 1
RNA 2: B3 RNA 2 with G39C, U41G, C43U, U45G
B10: target 1 C4U,U10A (mixed)
RNA 1: B1 RNA 1
RNA 2: B1 RNA 2 with U35G, U42A, C48U
B11: target 1 insA 3' of 5,insA 3' of 3 (mixed)
RNA 1: B1 RNA 1
RNA 2: B3 RNA 2 with C43A, A44U, U45C, U46C, C47G, C48A, G49C, C50U, U51A
B12: target 1 C2U,U10G (mixed)
RNA 1: B1 RNA 1
RNA 2: B1 RNA 2 with U35G, U42G, C50U
B13: target 1 C21U (mixed)
RNA 1: B1 RNA 1
RNA 2: B1 RNA 2 with C31U, U35G
B14: target 1 A1G,C21U (mixed)
RNA 1: B1 RNA 1
RNA 2: B1 RNA 2 with C31U, U35G, A51G
B15: target 1 insG 3' of 22,insG 3' of 7 (mixed)
RNA 1: B1 RNA 1
RNA 2: B6 RNA 2 with C31G, A32C, C33A, C44A, A45U, U46C, C47G
B16: target 1 del19,del22 (mixed)
RNA 1: B1 RNA 1
RNA 2: B7 RNA 2 with C31A
B17: target 1 U3G,G12U (mixed)
RNA 1: B1 RNA 1
RNA 2: B1 RNA 2 with U35G, G40U, U49G
B18: target 1 insC 3' of 15,insG 3' of 3 (mixed)
RNA 1: B1 RNA 1
RNA 2: B3 RNA 2 with A38C, G39A, U41G, C43U, U46C, C48G, G49C, C50U, U51G
B19: target 1 A1C,G17U (mixed)
RNA 1: B1 RNA 1
RNA 2: B1 RNA 2 with A51C
B20: target 1 A1C,A9U (mixed)
RNA 1: B1 RNA 1
RNA 2: B1 RNA 2 with U35G, A43U, A51C
B21: target 1 insA 3' of 11,insC 3' of 9 (mixed)
RNA 1: B1 RNA 1
RNA 2: B3 RNA 2 with U42A, C43U, U45C
B22: target 1 insG 3' of 18,insG 3' of 7 (mixed)
RNA 1: B1 RNA 1
RNA 2: B6 RNA 2 with C33U, U34A, A35G, C44A, A45U, U46C, C47G
B23: target 1 complement block 6-14 (mixed)
RNA 1: B1 RNA 1
RNA 2: GGGAAUGGAUCCACAUCUACGAAUUCGUACCAUAGAGUCCAAUAGGGCUCACCGAGAUCGGAAGAGCACACGU
B24: target 1 insU 3' of 15,insU 3' of 14 (mixed)
RNA 1: B1 RNA 1
RNA 2: B3 RNA 2 with A38U, G39A, G40U, U41G, U42G, C43U, A44U, U45A
B25: target 1 del17 (mixed)
RNA 1: B1 RNA 1
RNA 2: GGGAAUGGAUCCACAUCUACGAAUUCGUACCAUAAGAGGUUAUCCGCUCACCGAGAUCGGAAGAGCACACGU
B26: target 1 insC 3' of 14,insA 3' of 3 (mixed)
RNA 1: B1 RNA 1
RNA 2: B3 RNA 2 with G39C, U41G, C43U, U46C, C48G, G49C, C50U, U51A
B27: target 1 insC 3' of 8,insA 3' of 3 (mixed)
RNA 1: B1 RNA 1
RNA 2: B3 RNA 2 with C43A, A44U, U45C, U46C, C48G, G49C, C50U, U51A
B28: target 1 C2G,G12C (mixed)
RNA 1: B1 RNA 1
RNA 2: B1 RNA 2 with U35G, G40C, C50G
B29: target 1 insU 3' of 9,insG 3' of 4 (mixed)
RNA 1: B1 RNA 1
RNA 2: B3 RNA 2 with C43A, A44U, U46C, C48G, G49C, C50G
B30: target 1 A1C,C21U (mixed)
RNA 1: B1 RNA 1
RNA 2: B1 RNA 2 with C31U, U35G, A51C
B31: target 1 A9G,A14C (mixed)
RNA 1: B1 RNA 1
RNA 2: B1 RNA 2 with U35G, A38C, A43G

Positions count from the first letter of the chain named. Names may count otherwise.

31 molecules from publication PMC10786891, “Massively parallel profiling of RNA-targeting CRISPR-Cas13d” can be followed below.

This data set has as its target T1, EsCas13d, nuclease-dead. Briefly: crRNA (strand 1, pre-loaded); Mg2+; 40 mM Tris-HCl pH 7.5, 150 mM NaCl, 6 mM MgCl2, 1 mM DTT, 0.1% Tween-20, 0.2 mg/ml BSA; 25 C; 10 min per concentration, then washed. As to conditions: tags: His6-TwinStrep-SUMO cleaved; N-terminal SNAP kept (SNAP-Surface 488); label: 3' end held by stalled T7 RNA polymerase.
A word on the Kd: it is a measure of binding affinity in units of concentration. Read a high Kd as weaker binding. On to B1, for which the Kd was determined as 17 ± 1.3 nM.
The figure for B2 is 5.06 ± 0.27 nM; for B3 it is 66 ± 27 nM; for B4 it is 8.6 ± 0.7 nM.
The figure for B5 is 40 ± 4 nM.
With B6 the figure was 8.7 ± 0.6 nM.
B7 yielded a Kd of 32.4 ± 3.4 nM.
In turn, B8 displayed a Kd of 56 ± 8 nM.
The molecule B9 had a Kd of 38 ± 9 nM.
B10: the dissociation constant Kd was found to be 47 ± 15 nM.
With B11, the Kd came to 6.8 ± 0.6 nM.
The figure for B12 is 23.6 ± 1.7 nM; for B13 it is 6.47 ± 0.24 nM; for B14 it is 6.38 ± 0.24 nM.
With B15 the figure was 18.1 ± 1.1 nM; with B16, 56 ± 16 nM; with B17, 8.5 ± 0.4 nM.
With B18 the figure was 9.32 ± 0.33 nM.
B19 displayed an equilibrium dissociation constant (Kd) of 34 ± 9 nM.
Molecule B20 showed a Kd of 20 ± 5 nM.
Take B21: binding was characterised by a dissociation constant (Kd) of 15.3 ± 0.8 nM.
With B22 the figure was 34.9 ± 3 nM.
In turn, B23 displayed a Kd of 69 ± 27 nM.
The figure for B24 is 53 ± 4 nM; for B25 it is 22.6 ± 1.6 nM; for B26 it is 24.8 ± 1.9 nM.
The figure for B27 is 11.8 ± 0.7 nM.
The figure for B28 is 8.4 ± 0.8 nM; for B29 it is 13.6 ± 2.1 nM.
As to B30, the Kd is 13 ± 4 nM.
With B31 the figure was 46 ± 6 nM.
